Results on one substance are retold here after article PMC6151440.

As usually defined, the pKa is the negative logarithm of the acid dissociation constant.

Holding throughout (test): NMR
What all share (conditions): folded, free wild-type ubiquitin

Series [1] has as its target Glu51 (UniProt position 51, AGKQLEDGRTL).
For series [2], the target named is Asp32 (UniProt position 32, KAKIQDKEGIP).
Series [3] concerns the target Asp58 (UniProt position 58, GRTLSDYNIQK).
Series [4] addresses Asp39 (UniProt position 39, EGIPPDQQRLI).
The target of series [5] is Glu16 (UniProt position 16, KTITLEVEPSD).
The target of series [6] is Glu34 (UniProt position 34, KIQDKEGIPPD).
Series [7] addresses Glu18 (UniProt position 18, ITLEVEPSDTI).
Series [8] addresses Asp21 (UniProt position 21, EVEPSDTIENV).
Series [9] deals with Glu64 (UniProt position 64, YNIQKESTLHL).
[10] abbreviates: 298 K, not stated (20 mM d-Tris-HCl buffer, no added salt stated), 20 mM d-Tris-HCl, 1-1.5 mM.
[11] abbreviates: 303 K, 100 mM KCl, cited from earlier work.

On to “Ubiquitin (wild type) (not stated (Homo sapiens inferred))”, for which the pKa in series [1] (setting [10]) was 3.69 ± 0.02; in [1] (setting [11]), 3.8; in series [2] (setting [10]), 3.68 ± 0.03; in series [2] (setting [11]), 3.8; in [3] (setting [10]) it was 3.47 ± 0.02; in [3] (setting [11]), 3.7. For the same substance, the pKa in series [4] (setting [10]) is given as 3.52 ± 0.02; in [4] (setting [11]) it was 3.6; in series [5] (setting [10]), 4.07 ± 0.02; in series [5] (setting [11]), 3.9; in series [6] (setting [10]), 4.16 ± 0.03; in series [6] (setting [11]) it was 4.5. Further, the pKa was 4.26 ± 0.03 in [7] (setting [10]); 4.3 in series [7] (setting [11]); 2.98 ± 0.03 in series [8] (setting [10]); 3.1 in [8] (setting [11]); 4.26 ± 0.02 in series [9] (setting [10]); 4.5 in series [9] (setting [11]).
